Assay results from patent US20250312444A1 (BEIJING TUO JIE BIOPHARMACEUTICAL, published 2025).

Legend:
mouse RXFP1 receptor = biological target: T1, mouse RXFP1 receptor (mouse, UniProt Q6R6I7 1-758); assay: cell-based or functional assay
T1 sequence (looked up): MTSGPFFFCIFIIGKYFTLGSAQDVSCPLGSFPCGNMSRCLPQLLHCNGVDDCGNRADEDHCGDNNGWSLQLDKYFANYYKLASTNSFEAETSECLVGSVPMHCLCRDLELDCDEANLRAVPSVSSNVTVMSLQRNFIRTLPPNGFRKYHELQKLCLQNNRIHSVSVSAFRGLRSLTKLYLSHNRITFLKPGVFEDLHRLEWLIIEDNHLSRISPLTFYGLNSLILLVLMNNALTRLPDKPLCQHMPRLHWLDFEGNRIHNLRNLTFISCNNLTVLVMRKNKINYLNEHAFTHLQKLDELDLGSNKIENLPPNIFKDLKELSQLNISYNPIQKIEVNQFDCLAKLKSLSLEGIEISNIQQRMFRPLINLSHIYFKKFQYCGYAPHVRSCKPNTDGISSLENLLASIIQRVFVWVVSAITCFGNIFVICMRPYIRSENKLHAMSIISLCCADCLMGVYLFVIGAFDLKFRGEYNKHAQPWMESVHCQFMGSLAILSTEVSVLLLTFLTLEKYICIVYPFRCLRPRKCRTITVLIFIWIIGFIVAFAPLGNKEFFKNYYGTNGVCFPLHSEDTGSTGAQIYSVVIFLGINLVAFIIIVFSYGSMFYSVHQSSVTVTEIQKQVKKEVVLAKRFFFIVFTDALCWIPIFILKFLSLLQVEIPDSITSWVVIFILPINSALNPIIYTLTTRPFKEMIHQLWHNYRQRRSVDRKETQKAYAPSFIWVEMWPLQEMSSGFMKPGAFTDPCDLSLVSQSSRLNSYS

dog RXFP1 receptor = dog RXFP1 receptor (dog); assay: cell-based or functional assay
[1] = biological target: T2, cynomolgus monkey RXFP1 receptor (cynomolgus monkey, UniProt H9ERA2 1-757 (rhesus entry)); assay: cell-based or functional assay
T2 sequence: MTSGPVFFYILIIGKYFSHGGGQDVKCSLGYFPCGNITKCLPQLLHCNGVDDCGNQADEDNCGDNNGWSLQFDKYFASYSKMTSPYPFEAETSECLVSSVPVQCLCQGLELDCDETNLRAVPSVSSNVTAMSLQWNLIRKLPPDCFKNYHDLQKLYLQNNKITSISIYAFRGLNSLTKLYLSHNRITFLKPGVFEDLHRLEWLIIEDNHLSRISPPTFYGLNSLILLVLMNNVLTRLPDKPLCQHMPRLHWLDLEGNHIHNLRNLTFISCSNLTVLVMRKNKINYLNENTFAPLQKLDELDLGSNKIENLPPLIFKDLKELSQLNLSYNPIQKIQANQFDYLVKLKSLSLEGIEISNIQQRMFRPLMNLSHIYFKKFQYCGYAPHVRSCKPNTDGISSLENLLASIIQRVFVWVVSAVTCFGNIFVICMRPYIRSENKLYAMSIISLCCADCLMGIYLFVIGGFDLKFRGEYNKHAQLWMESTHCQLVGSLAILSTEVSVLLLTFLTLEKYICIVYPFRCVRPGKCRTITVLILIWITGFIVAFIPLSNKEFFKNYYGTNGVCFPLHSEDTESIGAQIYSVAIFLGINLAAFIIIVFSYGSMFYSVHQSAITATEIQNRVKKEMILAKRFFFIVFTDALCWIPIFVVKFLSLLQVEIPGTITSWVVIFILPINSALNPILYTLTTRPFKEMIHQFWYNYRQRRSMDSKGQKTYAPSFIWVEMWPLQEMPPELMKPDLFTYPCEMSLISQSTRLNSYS

human RXFP2 receptor = human RXFP2 receptor (human, UniProt Q8WXD0 1-754); assay: cell-based or functional assay
rat serum albumin = biological target: T3, rat serum albumin (rat); assay: SPR Biacore T200, albumin amine-coupled, fusion protein as analyte
T3 chain: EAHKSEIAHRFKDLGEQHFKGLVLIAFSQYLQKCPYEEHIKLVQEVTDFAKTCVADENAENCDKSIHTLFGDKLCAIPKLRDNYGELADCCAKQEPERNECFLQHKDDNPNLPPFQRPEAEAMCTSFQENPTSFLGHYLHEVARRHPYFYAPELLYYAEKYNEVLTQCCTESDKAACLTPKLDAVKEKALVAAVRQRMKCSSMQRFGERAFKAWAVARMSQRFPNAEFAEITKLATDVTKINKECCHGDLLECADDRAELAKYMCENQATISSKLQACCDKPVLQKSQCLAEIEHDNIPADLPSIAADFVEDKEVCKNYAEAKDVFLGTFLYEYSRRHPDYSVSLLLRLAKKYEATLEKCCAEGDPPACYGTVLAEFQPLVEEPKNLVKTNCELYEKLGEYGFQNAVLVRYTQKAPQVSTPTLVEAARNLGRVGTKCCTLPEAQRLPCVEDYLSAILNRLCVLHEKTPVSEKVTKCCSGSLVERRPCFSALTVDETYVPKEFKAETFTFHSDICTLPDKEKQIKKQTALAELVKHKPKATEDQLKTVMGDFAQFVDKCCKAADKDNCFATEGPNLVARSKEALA
Experimental: (§1) Coupling of serum albumins from different species to an S series CM5 sensor chip (GE, Cat. 29-1049-88) was performed using an amino coupling kit (GE, Cat No. BR-1000-50). The albumin from each species was diluted to 2 μg/mL. After the CM5 chip was activated with EDC/NHS, the diluted albumin was flowed over the chip to reach a surface response value of about 200 (180 to 230) RU, and then the chip was blocked with ethanolamine. The blank control channel also needed to be activated with EDC/NHS and blocked with ethanolamine. […] The samples of 0051 and 0054 at different concentrations were separately flowed through the albumin-coupled and blank channels for 3 min at a flow rate of 50 μL/min, with a dissociation time of 4 min. After the end of each cycle, the chip was regenerated using 10 mM glycine-hydrochloric acid (pH 1.5) (GE, Cat. #BR-1003-54). The reaction signals were detected in real-time using Biacore T200 (GE) to obtain the association and dissociation curves, and the data obtained were fitted with a Langmuir 1:1 binding model using the BIAevaluation version 4.1 software at appropriate concentration points to obtain the affinity values.

[2] = biological target: mouse serum albumin (mSA) (mouse); assay: as above
Experimental: as §1

[3] = biological target: human serum albumin (HSA) (human); assay: as above
Experimental: as §1

EC50 (nM), cAMP production in CHO-K1 cells with receptor overexpression (mouse RXFP1 receptor): 21.7 nM
EC50 (nM), cAMP production in CHO-K1 cells with receptor overexpression (dog RXFP1 receptor): 2210 nM
EC50 (nM), cAMP production in CHO-K1 cells with receptor overexpression [1]: 25.1 nM
EC50 (nM), cAMP production in CHO-K1 cells with receptor overexpression (human RXFP2 receptor): 1250 nM
Kd (rat serum albumin): 1.95 nM
koff (rat serum albumin): 0.00439 s⁻¹
kon (rat serum albumin): 2.25e+06 M⁻¹ s⁻¹
Kd [2]: 37.9 nM
koff [2]: 0.0471 s⁻¹
kon [2]: 1.24e+06 M⁻¹ s⁻¹
Kd [3]: 0.0422 nM
koff [3]: 0.000207 s⁻¹
kon [3]: 4.91e+06 M⁻¹ s⁻¹
B1: 0051 (other)
chain: EVQLLESGGGLVQPGGSLRLSCAASGFTFLTSCMGWFRQAPGKEREGVSSIYTVGGSTFYTNSVKGRFTISRDNSKNTLYLQMNSLRAEDTAVYYCAAGSPARCRLRDPTTFDYWGQGTLVTVSSGGGGQGGGGQGGGGQGGGGQGGGGQSWMEEVIKLCGRELVRAQIAICGMSTWSGGGSGGSGGGQLYSALANKCCHVGCTKRSLARFC
notes: Single-chain fusion: anti-HSA VHH, linker, relaxin-2 B chain, linker, relaxin-2 A chain; also called fusion protein 0051; molecule 0051
